Assay [1] has as its target T1, recombinant human bone morphogenetic protein-2 (human, UniProt P12643 283-396).
T1 construct: Bought growth factor (Peprotech), physisorbed on microtiter wells for panning and ELISA; also called rh-BMP-2; BMP-2
The assay can be described thus: fluorescence depolarization.

The target in assay [2] is T2, recombinant human transforming growth factor β1 (human, UniProt P01137 279-390).
T2 construct: Bought growth factor (Peprotech), physisorbed on microtiter wells for panning and ELISA; also called rh-TGF-β1; TGF-β1
T2 sequence (P01137 279-390 limits assumed): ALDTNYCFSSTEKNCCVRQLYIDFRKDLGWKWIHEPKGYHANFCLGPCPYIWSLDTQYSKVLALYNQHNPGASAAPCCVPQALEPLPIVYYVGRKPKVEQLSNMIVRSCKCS
Kind of assay: phage ELISA on coated growth factor, anti-M13-HRP; grade of relative binding strength, 1 highest to 4 lowest. In general terms: ELISA stands for enzyme-linked immunosorbent assay.

Assay [3] addresses T1, recombinant human bone morphogenetic …. Described as above.
Assay [4] shares this target. The assay can be described thus: cell-based or functional assay.

Ends that are not written are not given here. Asp(CONHC12) = Asp whose side chain is modified with dodecylamine

T1 sequence (P12643 283-396 limits assumed): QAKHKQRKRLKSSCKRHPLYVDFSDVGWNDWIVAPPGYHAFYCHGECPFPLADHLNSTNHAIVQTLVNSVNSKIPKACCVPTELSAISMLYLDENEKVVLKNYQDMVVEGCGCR

As for KQALTQT, the Ka in assay [1] came to 210000 M⁻¹.

In the case of RTTSPTA (Tested as M13 phage clone), in assay [2], the binding result is recorded as “binds”.

For the molecule KVPPANT (Tested as M13 phage clone), in assay [3], the binding result was “binds”.

For PGPTVQG (Tested as M13 phage clone), the binding result in assay [3] is reported as “binds”.

With LRNYSHS (Tested as M13 phage clone), the binding result in assay [2] is “binds”.

On to PFDPPVR (Tested as M13 phage clone), for which the binding result in assay [3] was “binds”.

Take RVSTWDT (Tested as M13 phage clone): in assay [2], the binding result was “binds”.

Take DVSPAYH (Tested as M13 phage clone): the binding result in assay [3] was “binds”.

B1: Asp(CONHC12)-Val-Val-Val-Val-Val-Val-Lys-Lys-Lys-Ser-Gly-Gly-Gly-Tyr-Pro-Val-His-Pro-Ser-Thr (9) (peptide)
peptide: {Asp(CONHC12)}-VVVVVVKKKSGGGYPVHPST
modifications: also: reverse polarity: Asp(CONHC12) built on Rink amide resin, end direction unclear
Turning to B1, in assay [4], the “expression of osteocalcin in mesenchymal stem cells (western blot)” value was 0.5 ratio (binding gels : no binding gels).

As for LHYPFMT (Tested as M13 phage clone), in assay [3], the binding result is “binds”.

PIQPDER (Tested as M13 phage clone): in assay [3], the binding result is “binds”.

With LPSPIQK (Tested as M13 phage clone), in assay [2], the binding result is reported as “binds”.

As for VYRHLPT (Tested as M13 phage clone), the binding result in assay [2] is on record as “binds”.

Regarding GKYPPTS (Tested as M13 phage clone), the binding result in assay [2] was “binds”.

With LPLGNSH (Tested as M13 phage clone), the binding result in assay [2] was “binds”.

In the case of WPALFTH (Tested as M13 phage clone), the binding result in assay [3] is recorded as “binds”.

Take AWKSVTA (Tested as M13 phage clone): the binding result in assay [2] is on record as “binds”.

Consider YPVHPST, for which, in assay [1], the Ka came out at 1.9e+06 M⁻¹.

In the case of PAPRWIH (Tested as M13 phage clone), the binding result in assay [2] is recorded as “binds”.

With QQTQAQH (Tested as M13 phage clone), the binding result in assay [3] was “binds”.

Values taken from patent publication US7544661 (NORTHWESTERN UNIVERSITY, dated 2009).
